Changes are numbered by the printed parent chain. Names and notes keep the numbering of the source.
B1: human TRPV3 single-cysteine construct A131C (cysteine-free background, K169A) (natural protein, UniProt Q8NET8 1-790, looked up)
chain: MKAHPKEMVPLMGKRVAAPSGNPAILPEKRPAEITPTKKSAHFFLEIEGFEPNPTVAKTSPPVFSKPMDSNIRQAISGNADDMDSPQSPQDDVTETPSNPNSPSAQLAKEEQRRKKRRLKKRIFAAVSEGCVEELVELLVELQELARRRHDEDVPDFLMHKLTASDTGATALMKALLNINPNTKEIVRILLAFAEENDILGRFINAEYTEEAYEGQTALNIAIERRQGDIAALLIAAGADVNAHAKGAFFNPKYQHEGFYFGETPLALAAATNQPEIVQLLMEHEQTDITSRDSRGNNILHALVTVAEDFKTQNDFVKRMYDMILLRSGNWELETTRNNDGLTPLQLAAKMGKAEILKYILSREIKEKRLRSLSRKFTDWAYGPVSSSLYDLTNVDTTTDNSVLEITVYNTNIDNRHEMLTLEPLHTLLHMKWKKFAKHMFFLSFLFYFFYNITLTLVSYYRPREEEAIPHPLALTHKMGWLQLLGRMFVLIWAMLISVKEGIAIFLLRPSDLQSILSDAWFHFVFFIQAVLVILSVFLYLFAYKEYLAFLVLAMALGWANMLYYTRGFQSMGMYSVMIQKVILHDVLKFLFVYIVFLLGFGVALASLIEKAPKDNKDASSYGSFSDAVLELFKLTIGLGDLNIQQNSKYPILFLFLLITYVILTFVLLLNMLIALMGETVENVSKESERIWRLQRARTILEFEKMLPEWLRSRFRMGELAKVAEDDFRLALRINEVKWTEWKTHVSFLNEDPGPVRRTDFNKIQDSSRNNSKTTLNAFEEVEEFPETSV
modifications: C131 labelled with sulfo-Cy3 maleimide or sulfo-Cy5 maleimide (1:1 mixture) in the FRET samples
notes: human TRPV3, full length; printed as A131C on the cysteine-free construct, so the native C131 stands again and the other 12 cysteines are replaced; K169A added; Homotetrameric channel in DDM/CHS with lipids; also called hTRPV3 A131C; ARD construct; source: Sf9 cells, baculovirus (Bac-to-Bac), purified (DDM/CHS solubilisation, anti-FLAG resin)
B2: human TRPV3 single-cysteine construct A721C (cysteine-free background, K169A) (natural protein, UniProt Q8NET8 1-790, looked up)
chain: B1 chain with C131A, A721C
modifications: C721 labelled with sulfo-Cy3 maleimide or sulfo-Cy5 maleimide (1:1 mixture) in the FRET samples
notes: human TRPV3, full length; printed as A721C on the cysteine-free construct, so the native C721 stands again and the other 12 cysteines are replaced; K169A added; Homotetrameric channel in DDM/CHS with lipids; also called hTRPV3 A721C; C-terminal domain construct; source: Sf9 cells, baculovirus (Bac-to-Bac), purified (DDM/CHS solubilisation, anti-FLAG resin)
B3: human TRPV3 single-cysteine construct L513C (cysteine-free background, K169A) (natural protein, UniProt Q8NET8 1-790, looked up)
chain: B1 chain with C131A, L513C
modifications: C513 labelled with sulfo-Cy3 maleimide or sulfo-Cy5 maleimide (1:1 mixture) in the FRET samples
notes: human TRPV3, full length; all 13 native cysteines replaced, L513C and K169A added; Homotetrameric channel in DDM/CHS with lipids; also called hTRPV3 L513C; S2-S3 linker construct; source: Sf9 cells, baculovirus (Bac-to-Bac), purified (DDM/CHS solubilisation, anti-FLAG resin)
B4: human TRPV3 single-cysteine construct A619C (cysteine-free background, K169A) (natural protein, UniProt Q8NET8 1-790, looked up)
chain: B1 chain with C131A, A619C
modifications: C619 labelled with sulfo-Cy3 maleimide or sulfo-Cy5 maleimide (1:1 mixture) in the FRET samples
notes: human TRPV3, full length; printed as A619C on the cysteine-free construct, so the native C619 stands again and the other 12 cysteines are replaced; K169A added; Homotetrameric channel in DDM/CHS with lipids; also called hTRPV3 A619C; pore turret construct; source: Sf9 cells, baculovirus (Bac-to-Bac), purified (DDM/CHS solubilisation, anti-FLAG resin)

Biological target: the molecule itself
Experiment: SEC; fluorescence-detection size-exclusion chromatography (FSEC); heat-treated (42 °C) samples of each construct compared with a heat-untreated sample

Protein | stoichiometry N
B1 | 4
B2 | 4
B3 | 4
B4 | 4
